Test results reported in article PMC6588349, “Conformational dynamics between transmembrane domains and allosteric modulation of a metabotropic glutamate receptor” (eLife, 2019).

Target: SNAP-mGluR3 (rat), P31422
Experiment: single-molecule pulldown (SiMPull) with subunit counting by photobleaching steps; surface receptors labelled with BG-LD555 on HEK 293T cells, lysed in 1.2% IGEPAL, diluted in 0.1% IGEPAL, immobilised by biotinylated anti-HA antibody on a PEG-passivated coverslip, TIRF imaging; SNAP labelling efficiency ~80%; background two-step bleaching ~5-10%
Details: remark: other sources report otherwise

B1: SNAP-mGluR3, P31422 23-879 (receptor)
chain: LGDHNFMRREIKIEGDLVLGGLFPINEKGTGTEECGRINEDRGIQRLEAMLFAIDEINKDNYLLPGVKLGVHILDTCSRDTYALEQSLEFVRASLTKVDEAEYMCPDGSYAIQENIPLLIAGVIGGSYSSVSIQVANLLRLFQIPQISYASTSAKLSDKSRYDYFARTVPPDFYQAKAMAEILRFFNWTYVSTVASEGDYGETGIEAFEQEARLRNICIATAEKVGRSNIRKSYDSVIRELLQKPNARVVVLFMRSDDSRELIAAANRVNASFTWVASDGWGAQESIVKGSEHVAYGAITLELASHPVRQFDRYFQSLNPYNNHRNPWFRDFWEQKFQCSLQNKRNHRQVCDKHLAIDSSNYEQESKIMFVVNAVYAMAHALHKMQRTLCPNTTKLCDAMKILDGKKLYKEYLLKINFTAPFNPNKGADSIVKFDTFGDGMGRYNVFNLQQTGGKYSYLKVGHWAETLSLDVDSIHWSRNSVPTSQCSDPCAPNEMKNMQPGDVCCWICIPCEPYEYLVDEFTCMDCGPGQWPTADLSGCYNLPEDYIKWEDAWAIGPVTIACLGFLCTCIVITVFIKHNNTPLVKASGRELCYILLFGVSLSYCMTFFFIAKPSPVICALRRLGLGTSFAICYSALLTKTNCIARIFDGVKNGAQRPKFISPSSQVFICLGLILVQIVMVSVWLILETPGTRRYTLPEKRETVILKCNVKDSSMLISLTYDVVLVILCTVYAFKTRKCPENFNEAKFIGFTMYTTCIIWLAFLPIFYVTSSDYRVQTTTMCISVSLSGFVVLGCLFAPKVHIVLFQPQKNVVTHRLHLNRFSVSGTATTYSQSSASTYVPTVCNGREVLDSTTSSL
modifications: here or on the partner: SNAP tag labelled with BG-LD555; SNAP tag labelled with BG-LD555
percent of spots bleaching in two steps: 48.9% | stoichiometry N: 2
